{"source": "patent US12679878B2", "about": "“CRF2 receptor agonists and their use in therapy” (SANOFI, priority 2020, dated 2026)", "binders": {"B1": {"name": "SEQ ID NO: 182 (peptide)", "peptide": "IVLSLD[dV]PIKLK(C18 diacid)QILLKQERQK[Aib]QREQAEKNKQILAQV-NH2", "modifications": "N-terminus assumed", "SMILES": "CC[C@H](C)[C@H](N)C(=O)N[C@H](C(=O)N[C@@H](CC(C)C)C(=O)N[C@@H](CO)C(=O)N[C@@H](CC(C)C)C(=O)N[C@@H](CC(=O)O)C(=O)N[C@@H](C(=O)N1CCC[C@H]1C(=O)N[C@H](C(=O)N[C@@H](CCCCN)C(=O)N[C@@H](CC(C)C)C(=O)N[C@@H](CCCCNC(=O)CCCCCCCCCCCCCCCCC(=O)O)C(=O)N[C@@H](CCC(N)=O)C(=O)N[C@H](C(=O)N[C@@H](CC(C)C)C(=O)N[C@@H](CC(C)C)C(=O)N[C@@H](CCCCN)C(=O)N[C@@H](CCC(N)=O)C(=O)N[C@@H](CCC(=O)O)C(=O)N[C@@H](CCCNC(=N)N)C(=O)N[C@@H](CCC(N)=O)C(=O)N[C@@H](CCCCN)C(=O)NC(C)(C)C(=O)N[C@@H](CCC(N)=O)C(=O)N[C@@H](CCCNC(=N)N)C(=O)N[C@@H](CCC(=O)O)C(=O)N[C@@H](CCC(N)=O)C(=O)N[C@@H](C)C(=O)N[C@@H](CCC(=O)O)C(=O)N[C@@H](CCCCN)C(=O)N[C@@H](CC(N)=O)C(=O)N[C@@H](CCCCN)C(=O)N[C@@H](CCC(N)=O)C(=O)N[C@H](C(=O)N[C@@H](CC(C)C)C(=O)N[C@@H](C)C(=O)N[C@@H](CCC(N)=O)C(=O)N[C@H](C(N)=O)C(C)C)[C@@H](C)CC)[C@@H](C)CC)[C@@H](C)CC)C(C)C)C(C)C"}, "B2": {"name": "SEQ ID NO: 180 (peptide)", "peptide": "IVLSLD[dV]PIKLK([γGlu-C18 diacid])QILLKQARQK[Aib]QRAQAEKNKRILERV-NH2", "modifications": "N-terminus assumed", "SMILES": "CC[C@H](C)[C@H](N)C(=O)N[C@H](C(=O)N[C@@H](CC(C)C)C(=O)N[C@@H](CO)C(=O)N[C@@H](CC(C)C)C(=O)N[C@@H](CC(=O)O)C(=O)N[C@@H](C(=O)N1CCC[C@H]1C(=O)N[C@H](C(=O)N[C@@H](CCCCN)C(=O)N[C@@H](CC(C)C)C(=O)N[C@@H](CCCCNC(=O)CC[C@H](NC(=O)CCCCCCCCCCCCCCCCC(=O)O)C(=O)O)C(=O)N[C@@H](CCC(N)=O)C(=O)N[C@H](C(=O)N[C@@H](CC(C)C)C(=O)N[C@@H](CC(C)C)C(=O)N[C@@H](CCCCN)C(=O)N[C@@H](CCC(N)=O)C(=O)N[C@@H](C)C(=O)N[C@@H](CCCNC(=N)N)C(=O)N[C@@H](CCC(N)=O)C(=O)N[C@@H](CCCCN)C(=O)NC(C)(C)C(=O)N[C@@H](CCC(N)=O)C(=O)N[C@@H](CCCNC(=N)N)C(=O)N[C@@H](C)C(=O)N[C@@H](CCC(N)=O)C(=O)N[C@@H](C)C(=O)N[C@@H](CCC(=O)O)C(=O)N[C@@H](CCCCN)C(=O)N[C@@H](CC(N)=O)C(=O)N[C@@H](CCCCN)C(=O)N[C@@H](CCCNC(=N)N)C(=O)N[C@H](C(=O)N[C@@H](CC(C)C)C(=O)N[C@@H](CCC(=O)O)C(=O)N[C@@H](CCCNC(=N)N)C(=O)N[C@H](C(N)=O)C(C)C)[C@@H](C)CC)[C@@H](C)CC)[C@@H](C)CC)C(C)C)C(C)C"}, "B3": {"name": "SEQ ID NO: 183 (peptide)", "peptide": "IVLSLD[dV]PIKLK(C18 diacid)QILLKQARQK[Aib]QRAQAEKNKRILERV-NH2", "modifications": "N-terminus assumed", "SMILES": "CC[C@H](C)[C@H](N)C(=O)N[C@H](C(=O)N[C@@H](CC(C)C)C(=O)N[C@@H](CO)C(=O)N[C@@H](CC(C)C)C(=O)N[C@@H](CC(=O)O)C(=O)N[C@@H](C(=O)N1CCC[C@H]1C(=O)N[C@H](C(=O)N[C@@H](CCCCN)C(=O)N[C@@H](CC(C)C)C(=O)N[C@@H](CCCCNC(=O)CCCCCCCCCCCCCCCCC(=O)O)C(=O)N[C@@H](CCC(N)=O)C(=O)N[C@H](C(=O)N[C@@H](CC(C)C)C(=O)N[C@@H](CC(C)C)C(=O)N[C@@H](CCCCN)C(=O)N[C@@H](CCC(N)=O)C(=O)N[C@@H](C)C(=O)N[C@@H](CCCNC(=N)N)C(=O)N[C@@H](CCC(N)=O)C(=O)N[C@@H](CCCCN)C(=O)NC(C)(C)C(=O)N[C@@H](CCC(N)=O)C(=O)N[C@@H](CCCNC(=N)N)C(=O)N[C@@H](C)C(=O)N[C@@H](CCC(N)=O)C(=O)N[C@@H](C)C(=O)N[C@@H](CCC(=O)O)C(=O)N[C@@H](CCCCN)C(=O)N[C@@H](CC(N)=O)C(=O)N[C@@H](CCCCN)C(=O)N[C@@H](CCCNC(=N)N)C(=O)N[C@H](C(=O)N[C@@H](CC(C)C)C(=O)N[C@@H](CCC(=O)O)C(=O)N[C@@H](CCCNC(=N)N)C(=O)N[C@H](C(N)=O)C(C)C)[C@@H](C)CC)[C@@H](C)CC)[C@@H](C)CC)C(C)C)C(C)C"}, "B4": {"name": "SEQ ID NO: 184 (peptide)", "peptide": "IVLSLD[dV]PIKLK(C18 diacid)QILLKQERQKKQRQQAEKNKQILAQV-NH2", "modifications": "N-terminus assumed", "SMILES": "CC[C@H](C)[C@H](N)C(=O)N[C@H](C(=O)N[C@@H](CC(C)C)C(=O)N[C@@H](CO)C(=O)N[C@@H](CC(C)C)C(=O)N[C@@H](CC(=O)O)C(=O)N[C@@H](C(=O)N1CCC[C@H]1C(=O)N[C@H](C(=O)N[C@@H](CCCCN)C(=O)N[C@@H](CC(C)C)C(=O)N[C@@H](CCCCNC(=O)CCCCCCCCCCCCCCCCC(=O)O)C(=O)N[C@@H](CCC(N)=O)C(=O)N[C@H](C(=O)N[C@@H](CC(C)C)C(=O)N[C@@H](CC(C)C)C(=O)N[C@@H](CCCCN)C(=O)N[C@@H](CCC(N)=O)C(=O)N[C@@H](CCC(=O)O)C(=O)N[C@@H](CCCNC(=N)N)C(=O)N[C@@H](CCC(N)=O)C(=O)N[C@@H](CCCCN)C(=O)N[C@@H](CCCCN)C(=O)N[C@@H](CCC(N)=O)C(=O)N[C@@H](CCCNC(=N)N)C(=O)N[C@@H](CCC(N)=O)C(=O)N[C@@H](CCC(N)=O)C(=O)N[C@@H](C)C(=O)N[C@@H](CCC(=O)O)C(=O)N[C@@H](CCCCN)C(=O)N[C@@H](CC(N)=O)C(=O)N[C@@H](CCCCN)C(=O)N[C@@H](CCC(N)=O)C(=O)N[C@H](C(=O)N[C@@H](CC(C)C)C(=O)N[C@@H](C)C(=O)N[C@@H](CCC(N)=O)C(=O)N[C@H](C(N)=O)C(C)C)[C@@H](C)CC)[C@@H](C)CC)[C@@H](C)CC)C(C)C)C(C)C"}, "B5": {"name": "SEQ ID NO: 22 (peptide)", "peptide": "IVLSLDVPIKLK([AEEA-AEEA-γGlu-C18 diacid])QILLKQERQK[Aib]QRQKAEKNKQILAQV-NH2", "modifications": "N-terminus assumed", "SMILES": "CC[C@H](C)[C@H](N)C(=O)N[C@H](C(=O)N[C@@H](CC(C)C)C(=O)N[C@@H](CO)C(=O)N[C@@H](CC(C)C)C(=O)N[C@@H](CC(=O)O)C(=O)N[C@H](C(=O)N1CCC[C@H]1C(=O)N[C@H](C(=O)N[C@@H](CCCCN)C(=O)N[C@@H](CC(C)C)C(=O)N[C@@H](CCCCNC(=O)COCCOCCNC(=O)COCCOCCNC(=O)CC[C@H](NC(=O)CCCCCCCCCCCCCCCCC(=O)O)C(=O)O)C(=O)N[C@@H](CCC(N)=O)C(=O)N[C@H](C(=O)N[C@@H](CC(C)C)C(=O)N[C@@H](CC(C)C)C(=O)N[C@@H](CCCCN)C(=O)N[C@@H](CCC(N)=O)C(=O)N[C@@H](CCC(=O)O)C(=O)N[C@@H](CCCNC(=N)N)C(=O)N[C@@H](CCC(N)=O)C(=O)N[C@@H](CCCCN)C(=O)NC(C)(C)C(=O)N[C@@H](CCC(N)=O)C(=O)N[C@@H](CCCNC(=N)N)C(=O)N[C@@H](CCC(N)=O)C(=O)N[C@@H](CCCCN)C(=O)N[C@@H](C)C(=O)N[C@@H](CCC(=O)O)C(=O)N[C@@H](CCCCN)C(=O)N[C@@H](CC(N)=O)C(=O)N[C@@H](CCCCN)C(=O)N[C@@H](CCC(N)=O)C(=O)N[C@H](C(=O)N[C@@H](CC(C)C)C(=O)N[C@@H](C)C(=O)N[C@@H](CCC(N)=O)C(=O)N[C@H](C(N)=O)C(C)C)[C@@H](C)CC)[C@@H](C)CC)[C@@H](C)CC)C(C)C)C(C)C"}, "B6": {"name": "SEQ ID NO: 181 (peptide)", "peptide": "IVLSLD[dV]PIKLK([γGlu-C18 diacid])QILLKQERQKKQRQQAEKNKQILAQV-NH2", "modifications": "N-terminus assumed", "SMILES": "CC[C@H](C)[C@H](N)C(=O)N[C@H](C(=O)N[C@@H](CC(C)C)C(=O)N[C@@H](CO)C(=O)N[C@@H](CC(C)C)C(=O)N[C@@H](CC(=O)O)C(=O)N[C@@H](C(=O)N1CCC[C@H]1C(=O)N[C@H](C(=O)N[C@@H](CCCCN)C(=O)N[C@@H](CC(C)C)C(=O)N[C@@H](CCCCNC(=O)CC[C@H](NC(=O)CCCCCCCCCCCCCCCCC(=O)O)C(=O)O)C(=O)N[C@@H](CCC(N)=O)C(=O)N[C@H](C(=O)N[C@@H](CC(C)C)C(=O)N[C@@H](CC(C)C)C(=O)N[C@@H](CCCCN)C(=O)N[C@@H](CCC(N)=O)C(=O)N[C@@H](CCC(=O)O)C(=O)N[C@@H](CCCNC(=N)N)C(=O)N[C@@H](CCC(N)=O)C(=O)N[C@@H](CCCCN)C(=O)N[C@@H](CCCCN)C(=O)N[C@@H](CCC(N)=O)C(=O)N[C@@H](CCCNC(=N)N)C(=O)N[C@@H](CCC(N)=O)C(=O)N[C@@H](CCC(N)=O)C(=O)N[C@@H](C)C(=O)N[C@@H](CCC(=O)O)C(=O)N[C@@H](CCCCN)C(=O)N[C@@H](CC(N)=O)C(=O)N[C@@H](CCCCN)C(=O)N[C@@H](CCC(N)=O)C(=O)N[C@H](C(=O)N[C@@H](CC(C)C)C(=O)N[C@@H](C)C(=O)N[C@@H](CCC(N)=O)C(=O)N[C@H](C(N)=O)C(C)C)[C@@H](C)CC)[C@@H](C)CC)[C@@H](C)CC)C(C)C)C(C)C"}}, "note": "Starred links: 1 amine or outer side, 2 acyl side, 3 side chain; linkers in the order of their positions; H or OH if unused. Non-standard residues stand in square brackets, D forms with d. Groups on a side chain read outwards from the residue. No end group written: not given here. *: point of attachment. C18 diacid = O=C(O)CCCCCCCCCCCCCCCCC(=O)*; γGlu = O=C(O)[C@H](CCC(=O)[*:2])N[*:1]; AEEA = NCCOCCOCC(=O)O; Aib = CC(C)(N)C(=O)O", "data": [{"biological_target": "human corticotropin-releasing factor 2α (CRF2 α receptor) (human), Q13324", "sequence (Q13324 20-411)": "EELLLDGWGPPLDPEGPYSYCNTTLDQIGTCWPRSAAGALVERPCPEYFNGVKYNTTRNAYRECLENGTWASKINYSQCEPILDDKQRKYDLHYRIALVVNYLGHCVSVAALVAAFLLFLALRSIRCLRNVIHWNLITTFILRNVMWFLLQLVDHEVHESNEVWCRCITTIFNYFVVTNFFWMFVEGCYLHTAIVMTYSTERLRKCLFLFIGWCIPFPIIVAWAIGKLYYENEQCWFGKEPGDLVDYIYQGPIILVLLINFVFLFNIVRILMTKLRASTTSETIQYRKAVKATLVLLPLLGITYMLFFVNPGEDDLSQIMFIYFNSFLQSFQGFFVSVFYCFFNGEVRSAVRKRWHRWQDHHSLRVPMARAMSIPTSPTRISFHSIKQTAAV", "assay": "cell-based or functional assay", "units": {"EC50 [nM], 0% HSA": "nM", "EC50 [nM], 0.1% HSA": "nM"}, "values": [{"binder": "B1", "EC50 [nM], 0% HSA": 0.03, "EC50 [nM], 0.1% HSA": 3.13}, {"binder": "B2", "EC50 [nM], 0% HSA": 0.05, "EC50 [nM], 0.1% HSA": 1.74}, {"binder": "B3", "EC50 [nM], 0% HSA": 0.12, "EC50 [nM], 0.1% HSA": 1.58}, {"binder": "B4", "EC50 [nM], 0% HSA": 0.05, "EC50 [nM], 0.1% HSA": 2.83}, {"binder": "B5", "EC50 [nM], 0% HSA": 0.12}, {"binder": "B6", "EC50 [nM], 0% HSA": 1.18, "EC50 [nM], 0.1% HSA": 15.3}]}]}
